Substrate in this data set: Nc1nc2nc[nH]c2c(=O)[nH]1
Put plainly: Initial rate studies of TcHGXPRT, GMP biosynthesis. Conditions: other: variable substrate PRPP (1–78 μM) at fixed Gua levels; pH 8.3; 37.0 °C. It is filed as biochemical, Trypanosoma cruzi.

Drawing on article PMC10357585, this text covers Km and kcat for one protein.

B1: TcHGXPRT (Trypanosoma cruzi strain CL Brener) (protein)
chain: MISSQQAMVHVVSRNAEGVIVVDGKAYPMAEELVATESVIQRSIKAVAKQIADFYRPLSHRDTHGGGGVAPISDENPLIIISVLKGSYIFTADMVRYLGDYGLPHVVDFLRVASYRGTSSTNKMKLLAETQFKALRGKHVLILEDIVDSGKTLRYILDKVQREHQPATLKVCVLADKPGGRRVTMQPDFVCLTVPNKYVIGYGFEVNDRFRCFRHIFTLRPGEARRYPAHL
Turning to B1, the Michaelis-Menten constant (Km) came out at 28 ± 3 µM and the catalytic constant (kcat) worked out at 0.44 ± 0.02 s⁻¹.

The term Km denotes the concentration of substrate that gives half-maximal velocity. One may read the kcat as the number of substrate molecules converted per active site and unit of time at saturation.
